From US20250250343A1
Where two headings read alike, the source gives them in different places.

Legend:
VEGF (human) [1] = biological target: VEGF (human) (UniProt P15692)
VEGF (human) [2] = biological target: VEGF (human) (UniProt P15692); remark: listed apart in the source
human Tie2 (human) [3] = biological target: human Tie2 (human) (UniProt Q02763)
human Tie2 (human) [4] = biological target: human Tie2 (human) (UniProt Q02763); remark: listed apart in the source
human Tie2 (human) [5] = biological target: human Tie2 (human) (UniProt Q02763); remark: listed apart in the source
human Tie2 (human) [6] = biological target: human Tie2 (human) (UniProt Q02763); remark: listed apart in the source
human Tie2 (human) [7] = biological target: human Tie2 (human) (UniProt Q02763); remark: listed apart in the source
VEGF (human) [8] = biological target: VEGF (human) (UniProt P15692); remark: listed apart in the source

Chain of human Tie2 (human) (Q02763 23-1124): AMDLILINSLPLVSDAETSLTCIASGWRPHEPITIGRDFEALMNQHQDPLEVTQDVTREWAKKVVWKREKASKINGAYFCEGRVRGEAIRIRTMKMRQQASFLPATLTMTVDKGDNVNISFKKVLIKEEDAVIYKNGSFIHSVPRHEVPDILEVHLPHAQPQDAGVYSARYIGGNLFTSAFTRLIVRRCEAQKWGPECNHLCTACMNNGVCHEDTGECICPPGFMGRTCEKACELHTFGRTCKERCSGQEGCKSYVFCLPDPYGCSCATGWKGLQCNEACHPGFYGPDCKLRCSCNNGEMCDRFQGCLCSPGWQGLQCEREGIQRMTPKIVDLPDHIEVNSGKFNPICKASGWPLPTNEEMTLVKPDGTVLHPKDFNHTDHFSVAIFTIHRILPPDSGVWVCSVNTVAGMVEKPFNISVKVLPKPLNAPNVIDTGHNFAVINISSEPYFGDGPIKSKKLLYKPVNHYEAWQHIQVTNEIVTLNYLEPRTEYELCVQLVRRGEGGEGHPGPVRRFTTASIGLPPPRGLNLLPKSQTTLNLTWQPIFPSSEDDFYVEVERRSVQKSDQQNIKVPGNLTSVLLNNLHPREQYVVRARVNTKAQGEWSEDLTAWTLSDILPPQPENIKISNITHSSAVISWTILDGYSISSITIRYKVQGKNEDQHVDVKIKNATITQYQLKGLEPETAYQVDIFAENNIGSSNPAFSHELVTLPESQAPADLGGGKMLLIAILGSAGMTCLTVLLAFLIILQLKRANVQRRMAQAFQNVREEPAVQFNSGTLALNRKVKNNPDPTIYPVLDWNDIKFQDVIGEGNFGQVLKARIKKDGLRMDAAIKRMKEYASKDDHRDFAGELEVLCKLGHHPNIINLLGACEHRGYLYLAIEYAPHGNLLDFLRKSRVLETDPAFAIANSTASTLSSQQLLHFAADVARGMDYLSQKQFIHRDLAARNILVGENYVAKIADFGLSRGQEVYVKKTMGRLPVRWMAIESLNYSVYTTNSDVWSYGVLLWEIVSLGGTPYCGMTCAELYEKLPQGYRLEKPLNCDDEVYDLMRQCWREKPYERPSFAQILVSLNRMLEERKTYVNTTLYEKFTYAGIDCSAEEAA
Chain of VEGF (human) (P15692 other isoform, or with tags, fused parts or gaps limits assumed): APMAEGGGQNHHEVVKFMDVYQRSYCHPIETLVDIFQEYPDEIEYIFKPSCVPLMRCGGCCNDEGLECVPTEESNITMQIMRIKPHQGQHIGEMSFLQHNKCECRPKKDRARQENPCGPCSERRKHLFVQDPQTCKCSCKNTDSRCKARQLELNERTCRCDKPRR
Chain of Ang1 (Q15389 20-498 limits assumed): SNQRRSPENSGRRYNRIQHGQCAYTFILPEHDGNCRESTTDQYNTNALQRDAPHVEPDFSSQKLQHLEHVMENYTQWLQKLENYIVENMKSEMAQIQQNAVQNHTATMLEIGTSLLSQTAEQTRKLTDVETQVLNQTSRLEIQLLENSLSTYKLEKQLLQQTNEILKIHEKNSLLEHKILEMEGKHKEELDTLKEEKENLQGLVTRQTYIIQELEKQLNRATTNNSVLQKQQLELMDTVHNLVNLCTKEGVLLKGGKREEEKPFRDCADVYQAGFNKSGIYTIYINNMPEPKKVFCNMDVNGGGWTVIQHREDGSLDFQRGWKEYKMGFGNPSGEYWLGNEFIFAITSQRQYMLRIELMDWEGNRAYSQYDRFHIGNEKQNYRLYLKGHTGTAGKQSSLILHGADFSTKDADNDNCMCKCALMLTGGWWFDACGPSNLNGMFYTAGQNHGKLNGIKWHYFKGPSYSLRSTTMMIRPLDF
Chain of Aflibercept-LALA-PG (Fc fusion) (chain): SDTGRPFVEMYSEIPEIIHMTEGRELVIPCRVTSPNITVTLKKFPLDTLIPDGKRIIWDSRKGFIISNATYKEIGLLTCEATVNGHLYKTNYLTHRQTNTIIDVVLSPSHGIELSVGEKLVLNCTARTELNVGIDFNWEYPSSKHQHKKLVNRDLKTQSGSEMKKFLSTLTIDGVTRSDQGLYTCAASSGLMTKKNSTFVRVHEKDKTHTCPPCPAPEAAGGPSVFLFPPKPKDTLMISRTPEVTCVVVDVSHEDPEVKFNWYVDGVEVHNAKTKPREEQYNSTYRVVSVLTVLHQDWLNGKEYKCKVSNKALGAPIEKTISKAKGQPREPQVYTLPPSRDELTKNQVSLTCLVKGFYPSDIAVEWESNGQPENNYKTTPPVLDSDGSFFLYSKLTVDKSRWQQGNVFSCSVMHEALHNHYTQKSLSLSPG
Chain of Aflibercept (Fc fusion) (chain): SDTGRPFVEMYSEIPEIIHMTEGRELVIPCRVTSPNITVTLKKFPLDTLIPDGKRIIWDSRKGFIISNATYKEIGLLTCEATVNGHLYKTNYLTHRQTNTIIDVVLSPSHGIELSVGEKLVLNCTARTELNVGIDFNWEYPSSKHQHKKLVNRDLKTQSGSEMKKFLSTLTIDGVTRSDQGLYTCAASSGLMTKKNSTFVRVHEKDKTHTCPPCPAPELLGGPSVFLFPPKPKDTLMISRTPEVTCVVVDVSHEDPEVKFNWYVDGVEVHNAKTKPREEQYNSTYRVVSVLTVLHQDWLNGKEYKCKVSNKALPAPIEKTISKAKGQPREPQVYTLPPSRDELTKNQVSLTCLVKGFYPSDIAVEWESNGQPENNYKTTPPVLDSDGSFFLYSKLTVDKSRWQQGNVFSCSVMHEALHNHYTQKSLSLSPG

Q: How did the IC50 (read off the curve); % VEGF activity, KDR/NFAT-RE HEK293 luciferase reporter [Panel A] (VEGF (human) [1]) turn out when Aflibercept-LALA-PG (Fc fusion) was run?
A: The IC50 (read off the curve); % VEGF activity, KDR/NFAT-RE HEK293 luciferase reporter [Panel A] was 0.6 nM.

Q: And the EC50, VEGF neutralisation, KDR/NFAT-RE HEK293 luciferase reporter (VEGF (human) [2])?
A: The EC50, VEGF neutralisation, KDR/NFAT-RE HEK293 luciferase reporter was 0.56 nM.

Q: “Ang1 (from UniProt Q15389 20-498) (ligand)” was tested. Which EC50, pTIE2 in HUVEC [Panel C] (human Tie2 (human) [3]) did it give?
A: The EC50, pTIE2 in HUVEC [Panel C] was 1.77 nM.

Q: And the EC50, pAkt in HUVEC (MSD ELISA) [Panel B] (human Tie2 (human) [4])?
A: Its EC50, pAkt in HUVEC (MSD ELISA) [Panel B] is 1.71 nM.

Q: What about the EC50, pAkt in HUVEC (MSD ELISA) [Panel B] (human Tie2 (human) [5]) of the same substance?
A: The EC50, pAkt in HUVEC (MSD ELISA) [Panel B] was 4.1 nM.

Q: What about the EC50, pTie2 in HUVEC (in vitro potency) (human Tie2 (human) [6]) of the same substance?
A: Its EC50, pTie2 in HUVEC (in vitro potency) is 4.58 nM.

Q: What about the EC50, pTie2 in HUVEC, W/ VEGF (20 nM VEGF-165 per paragraph 153) [Panel E] (human Tie2 (human) [7]) of the same substance?
A: Its EC50, pTie2 in HUVEC, W/ VEGF (20 nM VEGF-165 per paragraph 153) [Panel E] is 2.4 nM.

Q: What about the EC50, pTie2 in HUVEC, W/O VEGF [Panel E] (human Tie2 (human) [7]) of the same substance?
A: Its EC50, pTie2 in HUVEC, W/O VEGF [Panel E] is 1.61 nM.

Q: Which EC50, VEGF inhibition, KDR/NFAT-RE HEK293 luciferase reporter [Panel C] (VEGF (human) [8]) does the source give for Aflibercept (Fc fusion) here?
A: The EC50, VEGF inhibition, KDR/NFAT-RE HEK293 luciferase reporter [Panel C] was 0.28 nM.
